In patent US20230143582A1 one finds ED50 in the HEK293 TCF9-Secreted Alkaline Phosphatase (SEAP) Wnt-responsive reporter assay, lot DLGC02, ED50 in the HEK293 TCF9-Secreted Alkaline Phosphatase (SEAP) Wnt-responsive reporter assay, lot RSK51 and ED50 in the HEK293 TCF9-Secreted Alkaline Phosphatase (SEAP) Wnt-responsive reporter assay, lot RSK69 data, which are given here for one substance.

The assay addresses Wnt receptors on the cell surface of the HEK293 TCF9-SEAP reporter cell line. Briefly: cell-based or functional assay.

The substance “recombinant human Wnt3a protein (from UniProt P56704 19-352) (ligand)” yielded an ED50 in the HEK293 TCF9-Secreted Alkaline Phosphatase (SEAP) Wnt-responsive reporter assay, lot DLGC02 of 0.221 µg/mL; an ED50 in the HEK293 TCF9-Secreted Alkaline Phosphatase (SEAP) Wnt-responsive reporter assay, lot RSK51 of 0.145 µg/mL; an ED50 in the HEK293 TCF9-Secreted Alkaline Phosphatase (SEAP) Wnt-responsive reporter assay, lot RSK69 of 0.191 µg/mL.
